# Assay results from the supplement of paper PMC7125110.
# ± gives the standard error. For some assays here: This sample holds only a part of the variants without activity.
# B1: glmS ribozyme (parent)
# chain: AUAAAAGCGCCAGAACUACAGAAAUGUAGUUGACGAGGAGGAGGUUUAUCGAAUUUUCGGCGGAUGCCUCCAAA
# Assays:
# Conditions in all cases: with glucosamine-6-phosphate
# glucosamine-6-phosphate [1] = variants of: B1; assay: kcat; higher = faster cleavage; RNA array
# Procedure, shortened: (§1)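 The measurements used barcoded ribozyme variants on sequenced MiSeq chips, transcribed in situ by E. coli RNA polymerase and tracked at 37 °C with a hybridised Cy3 probe. Glucosamine-6-phosphate, 40 μM to 10 mM in HEPES/KCl/Mg(OAc)2 buffer, was flowed in while tiles were imaged over ~14 h. Baseline-normalised signals, also normalised to non-cleaving reference variants, gave per-tile medians that were fit to one- or two-exponential decays for kobs. kcat and KM resulted from weighted Michaelis–Menten fits across concentrations.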
# glucosamine-6-phosphate [2] = variants of: B1; assay: self-cleavage kobs at 40 uM GlcN6P; higher = faster cleavage; RNA array
# Procedure, shortened: as §1
# glucosamine-6-phosphate [3] = variants of: B1; assay: self-cleavage kobs at 10000 uM GlcN6P; higher = faster cleavage; RNA array
# Procedure, shortened: as §1
# glucosamine-6-phosphate [4] = variants of: B1; assay: KM; higher = weaker cofactor use; RNA array
# Procedure, shortened: as §1
# glucosamine-6-phosphate [5] = variants of: B1; assay: self-cleavage kobs at 160 uM GlcN6P; higher = faster cleavage; RNA array
# Procedure, shortened: as §1
# glucosamine-6-phosphate [6] = variants of: B1; assay: self-cleavage kobs at 640 uM GlcN6P; higher = faster cleavage; RNA array
# Procedure, shortened: as §1
# glucosamine-6-phosphate [7] = variants of: B1; assay: self-cleavage kobs at 2500 uM GlcN6P; higher = faster cleavage; RNA array
# Procedure, shortened: as §1
Variant,kcat (glucosamine-6-phosphate [1]) [s⁻¹],self-cleavage kobs at 40 uM GlcN6P (glucosamine-6-phosphate [2]) [s⁻¹],self-cleavage kobs at 10000 uM GlcN6P (glucosamine-6-phosphate [3]) [s⁻¹],KM (glucosamine-6-phosphate [4]) [µM],self-cleavage kobs at 160 uM GlcN6P (glucosamine-6-phosphate [5]) [s⁻¹],self-cleavage kobs at 640 uM GlcN6P (glucosamine-6-phosphate [6]) [s⁻¹],self-cleavage kobs at 2500 uM GlcN6P (glucosamine-6-phosphate [7]) [s⁻¹]
A14C G44A,0.000834 ± 0.00022,< 1e-05,4.02e-05 ± 1.1e-05,,,,
A14C U56C,0.000932 ± 0.00029,,0.000754 ± 0.00012,4280 ± 2000,3.09e-05 ± 1.5e-05,0.00014 ± 1.8e-05,0.000275 ± 4.5e-05
G29A U31C,0.000716 ± 0.00016,,0.000668 ± 0.00012,2070 ± 780,7.58e-05 ± 2e-05,0.000161 ± 3e-05,0.000333 ± 7.1e-05
A14U G37A,0.000902 ± 0.00022,,0.000648 ± 7.7e-05,3590 ± 1400,6.22e-05 ± 1.3e-05,0.00012 ± 1.5e-05,0.00043 ± 5.9e-05
G29C G40U,0.000193 ± 6.2e-06,,0.000165 ± 1.5e-05,1880 ± 150,,5.1e-05 ± 8.7e-06,0.000106 ± 1.3e-05
G32C U46G,1.21e-05 ± 4.8e-07,,,349 ± 150,,,
G29A A52U,0.0001272 ± 9.8e-07,< 1e-05,9.97e-05 ± 1.3e-05,2770 ± 58,,2.42e-05 ± 1.1e-05,5.99e-05 ± 1.4e-05
G13U G40C,8.27e-05 ± 6.4e-06,,7.64e-05 ± 9.8e-06,994 ± 460,,,4.94e-05 ± 1.9e-05
C61G C70G,1.85e-05 ± 5.6e-06,,,,,,
C11G C67G,3.76e-05 ± 1.2e-05,,,,,5.1e-05 ± 1.3e-05,
C16U C58A C67G,0.000119 ± 2.4e-06,,0.000118 ± 2.5e-05,283 ± 23,4.51e-05 ± 1.9e-05,8.08e-05 ± 1.6e-05,0.000106 ± 2e-05
G41C U54A,8.93e-05 ± 2e-05,,8.37e-05 ± 2.2e-05,,,7.27e-05 ± 1.6e-05,7.27e-05 ± 1.5e-05
G51U C70G,3.09e-05 ± 1.2e-05,,,,,5.38e-05 ± 1.4e-05,4.11e-05 ± 1e-05
G29C U55A,0.00298 ± 0.00096,4.44e-05 ± 1.1e-05,0.00222 ± 0.00061,3270 ± 1400,0.000171 ± 3e-05,0.000406 ± 6.1e-05,0.00139 ± 0.00019
C10G A12G A53C G59C,1.95e-05 ± 6.6e-06,,,,,,
G29C,0.0045 ± 0.0012,8.88e-05 ± 1.6e-06,0.00377 ± 0.00011,2300 ± 720,0.000212 ± 8.4e-06,0.000839 ± 4.1e-05,0.00239 ± 0.0001
G13U G41C,0.000161 ± 1.8e-05,< 1e-05,,,< 1e-05,< 1e-05,
U65A C68U,0.000403 ± 0.00012,3.81e-05 ± 8.7e-06,0.000655 ± 8.7e-05,,0.000111 ± 1.8e-05,0.000186 ± 2.8e-05,0.000287 ± 4.2e-05

Variant,kcat (glucosamine-6-phosphate [1]) [s⁻¹],self-cleavage kobs at 40 uM GlcN6P (glucosamine-6-phosphate [2]) [s⁻¹],self-cleavage kobs at 10000 uM GlcN6P (glucosamine-6-phosphate [3]) [s⁻¹],KM (glucosamine-6-phosphate [4]) [µM],self-cleavage kobs at 160 uM GlcN6P (glucosamine-6-phosphate [5]) [s⁻¹],self-cleavage kobs at 640 uM GlcN6P (glucosamine-6-phosphate [6]) [s⁻¹],self-cleavage kobs at 2500 uM GlcN6P (glucosamine-6-phosphate [7]) [s⁻¹]
C10U U69A,1.11e-05 ± 3.7e-06,,,,,,
G32U G66C,5.37e-05 ± 2.7e-06,< 1e-05,3.11e-05 ± 1.2e-05,7240 ± 850,,,
C11A C16G,0.000161 ± 3.7e-05,,5.99e-05 ± 1.1e-05,,,,
G13A A14C,0.000465 ± 2.9e-05,,0.000353 ± 8.7e-05,2440 ± 230,2.93e-05 ± 1e-05,9.47e-05 ± 1.2e-05,0.000245 ± 3.2e-05
U30C C67A,8.57e-05 ± 7.5e-06,,8.63e-05 ± 8.9e-06,,,7.21e-05 ± 1.3e-05,6.84e-05 ± 1.1e-05
C16U U46A U54G C70A,0.000156 ± 2.4e-05,,0.000124 ± 5e-05,743 ± 300,,6.86e-05 ± 2.2e-05,0.000143 ± 3.9e-05
U45C U65C,0.000282 ± 2.2e-05,,0.000167 ± 4.8e-05,6720 ± 780,,,7.8e-05 ± 1.7e-05
A48U U65C,4.55e-05 ± 6.5e-06,< 1e-05,3.92e-05 ± 1.5e-05,,,,4.16e-05 ± 1.4e-05
A39G U55A,0.0158 ± 0.0027,0.00131 ± 0.00023,0.017 ± 0.0039,399 ± 110,0.00551 ± 0.0011,0.0115 ± 0.0025,0.0107 ± 0.0029
G60C C68G,1.2e-05 ± 1.5e-06,,,,,,
A42G U69G,0.000182 ± 2.9e-05,5.35e-05 ± 2.1e-05,0.000202 ± 4.3e-05,,,0.000119 ± 4.1e-05,
U30C U65G,7.96e-05 ± 3.5e-06,,7.23e-05 ± 6.6e-06,1130 ± 230,,3.09e-05 ± 1e-05,4.99e-05 ± 1.1e-05
A33G C50G,0.000122 ± 3.3e-05,,,,7.8e-05 ± 1.6e-05,0.000161 ± 2.3e-05,0.000102 ± 1.6e-05
U49G U56G,0.000717 ± 1.9e-05,,0.000484 ± 5.8e-05,4760 ± 210,,8.38e-05 ± 1.5e-05,0.000254 ± 4.7e-05
C50U U57A G59C U65A C70U,2.56e-05 ± 4.5e-06,< 1e-05,< 1e-05,293 ± 140,,,
G59A U69G,1.93e-05 ± 4.9e-06,,,,,,
U45A C67U,0.0622 ± 0.028,0.00106 ± 0.00014,0.0465 ± 0.014,,0.00246 ± 0.00047,0.0118 ± 0.0023,0.033 ± 0.01
